Assay results reported in patent US7629323B2, “Manipulation of neuronal ion channels” (Northwestern University, priority 2003, dated 2009).

Columns and labels:
[1] = molecular target: T1, Kv3.4a/Kv3.1b heteromeric channels (Rattus norvegicus, UniProt P25122+Q63734); format: cell-based; details: HEK293 cells, n=4
T1 construct: expressed in transfected cells; host or cells: HEK293
T1 sequence (Q63734 1-625): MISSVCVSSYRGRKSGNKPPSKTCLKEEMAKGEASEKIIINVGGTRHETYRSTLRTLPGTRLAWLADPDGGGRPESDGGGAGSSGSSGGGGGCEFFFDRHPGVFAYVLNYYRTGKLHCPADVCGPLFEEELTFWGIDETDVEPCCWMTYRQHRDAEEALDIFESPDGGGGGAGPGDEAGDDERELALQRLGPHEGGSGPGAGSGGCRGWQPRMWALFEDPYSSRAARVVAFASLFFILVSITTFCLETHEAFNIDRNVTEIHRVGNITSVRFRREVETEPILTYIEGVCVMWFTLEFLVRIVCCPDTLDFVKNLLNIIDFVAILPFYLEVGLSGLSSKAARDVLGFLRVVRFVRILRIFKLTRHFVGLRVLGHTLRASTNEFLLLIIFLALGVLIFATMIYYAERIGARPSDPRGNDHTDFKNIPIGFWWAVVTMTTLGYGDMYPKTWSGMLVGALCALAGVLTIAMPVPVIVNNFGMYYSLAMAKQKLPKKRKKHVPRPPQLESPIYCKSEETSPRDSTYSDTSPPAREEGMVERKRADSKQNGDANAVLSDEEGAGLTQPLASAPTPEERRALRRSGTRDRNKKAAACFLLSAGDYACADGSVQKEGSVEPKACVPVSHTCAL
T1 sequence (P25122 1-585): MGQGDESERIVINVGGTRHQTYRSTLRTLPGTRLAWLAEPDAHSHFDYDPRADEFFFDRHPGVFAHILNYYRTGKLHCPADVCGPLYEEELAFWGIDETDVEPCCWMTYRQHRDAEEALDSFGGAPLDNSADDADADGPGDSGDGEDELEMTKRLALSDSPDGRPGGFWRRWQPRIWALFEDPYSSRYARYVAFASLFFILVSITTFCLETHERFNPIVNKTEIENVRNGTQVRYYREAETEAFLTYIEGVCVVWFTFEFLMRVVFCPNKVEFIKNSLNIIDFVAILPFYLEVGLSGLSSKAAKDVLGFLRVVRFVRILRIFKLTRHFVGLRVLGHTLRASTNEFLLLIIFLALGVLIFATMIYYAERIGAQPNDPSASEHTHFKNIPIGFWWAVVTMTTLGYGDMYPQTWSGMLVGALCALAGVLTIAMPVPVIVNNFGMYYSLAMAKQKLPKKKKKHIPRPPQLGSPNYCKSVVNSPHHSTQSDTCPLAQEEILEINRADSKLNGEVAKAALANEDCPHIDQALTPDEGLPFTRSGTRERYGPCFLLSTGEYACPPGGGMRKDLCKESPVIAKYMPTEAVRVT
Description: Electrophysiology. Whole-cell recordings used standard techniques^27,28. The internal solution consisted of (in mM): 30-90 K2SO4, 0-60 N-methyl-D-glucamine, 2 MgCl2, 40 HEPES, 5 EGTA, 12 phosphocreatine, 2 Na2ATP, 0.2 Na3GTP, and 0.1 leupeptin, pH 7.2 with H2SO4 (osmolarity 260-270 mOsm/l). The external solution consisted of (in mM): 140 Na-isethionate, 2 KCl, 4 MgCl2, 10 HEPES, 12 glucose and 0.001 TTX, pH 7.35 with NaOH (osmolarity 295-305 mOsm/l). The internal solution for current clamp recordings consisted of (in mM) 110 potassium methylsulphate, 2 MgCl2, 40 HEPES, 5 EGTA, 12 phosphocreatine, 2 Na2ATP, 0.2 Na3GTP, and 0.1 leupeptin, pH 7.2 with H2SO4 (osmolarity 260-270 mOsm/l). In the case of current clamp recordings, TTX was omitted from external solution. For the recordings in the presence of Ca^+2 ions EGTA was omitted from internal solution and 4 mM of MgCl2 was substituted by 2 mM of CaCl2 and 2 mM of MgCl2. […] Recordings were obtained with Axon Instruments 200 patch-clamp amplifier and controlled and monitored with a PC running pClamp software (version 7.0) (Axon Instruments Inc., Union City, Calif.). […] After seal rupture, series resistance (2-10 MΩ) was compensated (75-90%) and periodically monitored. […]
Single cell RT-PCR (scRT-PCR). […] In the case of co-transfection with Kv3.4a and Kv3.1b cDNA, single cell RT-PCR was used to confirm the presence of both mRNAs in the recorded cell. […]

Kv3.1 channel = molecular target: T2, Kv3.1 channel (Rattus norvegicus, UniProt P25122); details: low micromolar concentrations; cited from earlier work
T2 sequence (P25122 1-585): T1 sequence (P25122 1-585)

BDS-I (AAPCFCSGKPGRGDLWILRGTCPGGYGYTSNCYKWPNICCYPH)
block of Kv3.4a/Kv3.1b heteromeric channels [1]: strong at the beginning of a depolarizing step and then waned with maintained depolarization
effects on Kv3.1 channel currents (Kv3.1 channel): only minor effects
